Source: IntAct's records for PubMed 31036956

B1: Proto-oncogene Wnt-3 (Homo sapiens), P56703 (parent)
chain: MEPHLLGLLLGLLLGGTRVLAGYPIWWSLALGQQYTSLGSQPLLCGSIPGLVPKQLRFCRNYIEIMPSVAEGVKLGIQECQHQFRGRRWNCTTIDDSLAIFGPVLDKATRESAFVHAIASAGVAFAVTRSCAEGTSTICGCDSHHKGPPGEGWKWGGCSEDADFGVLVSREFADARENRPDARSAMNKHNNEAGRTTILDHMHLKCKCHGLSGSCEVKTCWWAQPDFRAIGDFLKDKYDSASEMVVEKHRESRGWVETLRAKYSLFKPPTERDLVYYENSPNFCEPNPETGSFGTRDRTCNVTSHGIDGCDLLCCGRGHNTRTEKRKEKCHCIFHWCCYVSCQECIRIYDVHTCK

Variants of: B1
Details: with lrp6_human LRP6, O75581
lrp6_human LRP6, O75581, sequence (O75581 whole entry): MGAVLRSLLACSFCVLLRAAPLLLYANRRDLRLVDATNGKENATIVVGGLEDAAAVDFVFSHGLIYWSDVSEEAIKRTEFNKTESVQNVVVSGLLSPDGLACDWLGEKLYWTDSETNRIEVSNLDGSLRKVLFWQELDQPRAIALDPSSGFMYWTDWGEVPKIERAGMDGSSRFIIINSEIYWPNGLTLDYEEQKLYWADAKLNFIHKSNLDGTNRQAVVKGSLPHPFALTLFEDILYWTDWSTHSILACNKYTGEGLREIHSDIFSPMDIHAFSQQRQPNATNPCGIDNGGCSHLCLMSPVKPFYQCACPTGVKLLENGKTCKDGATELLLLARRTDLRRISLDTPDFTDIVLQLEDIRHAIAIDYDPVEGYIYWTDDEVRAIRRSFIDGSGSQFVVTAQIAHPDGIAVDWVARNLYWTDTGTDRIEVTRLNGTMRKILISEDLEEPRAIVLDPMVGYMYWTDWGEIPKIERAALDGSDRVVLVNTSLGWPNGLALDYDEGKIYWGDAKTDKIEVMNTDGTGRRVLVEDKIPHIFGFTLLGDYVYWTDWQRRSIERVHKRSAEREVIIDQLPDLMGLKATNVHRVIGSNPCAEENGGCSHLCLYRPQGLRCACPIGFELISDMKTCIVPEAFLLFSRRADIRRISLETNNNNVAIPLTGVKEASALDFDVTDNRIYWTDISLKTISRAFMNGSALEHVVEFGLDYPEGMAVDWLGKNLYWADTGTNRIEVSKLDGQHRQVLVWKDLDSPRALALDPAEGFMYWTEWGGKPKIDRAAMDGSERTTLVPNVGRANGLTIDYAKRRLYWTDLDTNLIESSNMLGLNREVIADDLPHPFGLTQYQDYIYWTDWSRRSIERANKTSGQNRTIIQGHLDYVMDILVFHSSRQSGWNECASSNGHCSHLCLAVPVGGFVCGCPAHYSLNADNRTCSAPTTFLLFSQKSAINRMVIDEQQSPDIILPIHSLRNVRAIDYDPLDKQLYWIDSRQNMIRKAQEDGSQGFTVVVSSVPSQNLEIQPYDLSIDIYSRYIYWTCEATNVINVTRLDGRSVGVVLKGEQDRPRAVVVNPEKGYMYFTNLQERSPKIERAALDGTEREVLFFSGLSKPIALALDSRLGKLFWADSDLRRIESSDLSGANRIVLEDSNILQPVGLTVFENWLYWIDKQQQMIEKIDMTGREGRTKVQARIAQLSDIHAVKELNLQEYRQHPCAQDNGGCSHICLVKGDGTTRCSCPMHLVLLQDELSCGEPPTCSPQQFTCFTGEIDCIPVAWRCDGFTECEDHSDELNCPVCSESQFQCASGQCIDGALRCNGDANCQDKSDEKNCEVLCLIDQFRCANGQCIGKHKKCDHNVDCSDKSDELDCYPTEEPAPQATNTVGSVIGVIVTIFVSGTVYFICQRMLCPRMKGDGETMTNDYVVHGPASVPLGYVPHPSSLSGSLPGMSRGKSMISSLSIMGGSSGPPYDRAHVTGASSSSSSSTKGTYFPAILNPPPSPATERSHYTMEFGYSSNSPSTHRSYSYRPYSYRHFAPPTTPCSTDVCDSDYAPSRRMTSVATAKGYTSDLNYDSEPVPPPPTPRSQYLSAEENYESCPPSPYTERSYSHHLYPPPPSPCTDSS

effect of a mutation on the interaction	Variant
disrupting interaction	R253E
